Our source for the stoichiometry N values is PMC9907207.

In general, stoichiometry N refers to a count of units in the complex or per binding partner.

The experiment has as its target D614G VFLIP spike trimer (SARS-CoV-2). Kind of experiment: cryo-EM structure.

The substance “D614G VFLIP spike trimer (natural protein)” came in with a stoichiometry N of 3.
